The target of test [1] is His-tagged recombinant full-length HB3VAR06 (FV6) (P. falciparum HB3). As to the kind of experiment: ELISA; MaxiSorp plates coated with recombinant PfEMP1 constructs (18 nM, overnight, 4°C); blocked in TSM buffer with 1% Ig-free BSA; α2M or α2M-MA (10 nM; titrated in Fig 2A); detected with anti-α2M antibodies. In general terms: An ELISA detects its analyte on a solid surface through an enzyme-linked reagent.

The target is the same in test [2]. Put plainly: SEC; Superdex 200 10/30 HR, 50 mM Tris-HCl, 150 mM NaCl, pH 7.4; α2M (150 μg) alone and with molar ratios of FV6, incubated on ice 15 min; 0.5 mL/min, A280. For orientation: In gel filtration, larger molecules generally elute earlier.

B1: α2-macroglobulin (α2M), native (natural protein)
chain: SVSGKPQYMVLVPSLLHTETTEKGCVLLSYLNETVTVSASLESVRGNRSLFTDLEAENDVLHCVAFAVPKSSSNEEVMFLTVQVKGPTQEFKKRTTVMVKNEDSLVFVQTDKSIYKPGQTVKFRVVSMDENFHPLNELIPLVYIQDPKGNRIAQWQSFQLEGGLKQFSFPLSSEPFQGSYKVVVQKKSGGRTEHPFTVEEFVLPKFEVQVTVPKIITILEEEMNVSVCGLYTYGKPVPGHVTVSICRKYSDASDCHGEDSQAFCEKFSGQLNSHGCFYQQVKTKVFQLKRKEYEMKLHTEAQIQEEGTVVELTGRQSSEITRTITKLSFVKVDSHFRQGIPFFGQVRLVDGKGVPIPNKVIFIRGNEANYYSNATTDEHGLVQFSINTTNVMGTSLTVRVNYKDRSPCYGYQWVSEEHEEAHHTAYLVFSPSKSFVHLEPMSHELPCGHTQTVQAHYILNGGTLLGLKKLSFYYLIMAKGGIVRTGTHGLLVKQEDMKGHFSISIPVKSDIAPVARLLIYAVLPTGDVIGDSAKYDVENCLANKVDLSFSPSQSLPASHAHLRVTAAPQSVCALRAVDQSVLLMKPDAELSASSVYNLLPEKDLTGFPGPLNDQDNEDCINRHNVYINGITYTPVSSTNEKDMYSFLEDMGLKAFTNSKIRKPKMCPQLQQYEMHGPEGLRVGFYESDVMGRGHARLVHVEEPHTETVRKYFPETWIWDLVVVNSAGVAEVGVTVPDTITEWKAGAFCLSEDAGLGISSTASLRAFQPFFVELTMPYSVIRGEAFTLKATVLNYLPKCIRVSVQLEASPAFLAVPVEKEQAPHCICANGRQTVSWAVTPKSLGNVNFTVSAEALESQELCGTEVPSVPEHGRKDTVIKPLLVEPEGLEKETTFNSLLCPSGGEVSEELSLKLPPNVVEESARASVSVLGDILGSAMQNTQNLLQMPYGCGEQNMVLFAPNIYVLDYLNETQQLTPEIKSKAIGYLNTGYQRQLNYKHYDGSYSTFGERYGRNQGNTWLTAFVLKTFAQARAYIFIDEAHITQALIWLSQRQKDNGCFRSSGSLLNNAIKGGVEDEVTLSAYITIALLEIPLTVTHPVVRNALFCLESAWKTAQEGDHGSHVYTKALLAYAFALAGNQDKRKEVLKSLNEEAVKKDNSVHWERPQKPKAPVGHFYEPQAPSAEVEMTSYVLLAYLTAQPAPTSEDLTSATNIVKWITKQQNAQGGFSSTQDTVVALHALSKYGAATFTRTGKAAQVTIQSSGTFSSKFQVDNNNRLLLQQVSLPELPGEYSMKVTGEGCVYLQTSLKYNILPEKEEFPFALGVQTLPQTCDEPKAHTSFQISLSVSYTGSRSASNMAIVDVKMVSGFIPLKPTVKMLERSNHVSRTEVSSNHVLIYLDKVSNQTLSLFFTVLQDVPVRDLKPAIVKVYDYYETDEFAIAEYNAPCSKDLGNA
B1: in test [1], the amount bound relative to α2M-MA (fold) was determined as 4 fold. In addition, the stoichiometry N in test [2] was more than 4 FV6 per α2M.

B2: methylamine-activated α2-macroglobulin (α2M-MA) (natural protein)
chain: SVSGKPQYMVLVPSLLHTETTEKGCVLLSYLNETVTVSASLESVRGNRSLFTDLEAENDVLHCVAFAVPKSSSNEEVMFLTVQVKGPTQEFKKRTTVMVKNEDSLVFVQTDKSIYKPGQTVKFRVVSMDENFHPLNELIPLVYIQDPKGNRIAQWQSFQLEGGLKQFSFPLSSEPFQGSYKVVVQKKSGGRTEHPFTVEEFVLPKFEVQVTVPKIITILEEEMNVSVCGLYTYGKPVPGHVTVSICRKYSDASDCHGEDSQAFCEKFSGQLNSHGCFYQQVKTKVFQLKRKEYEMKLHTEAQIQEEGTVVELTGRQSSEITRTITKLSFVKVDSHFRQGIPFFGQVRLVDGKGVPIPNKVIFIRGNEANYYSNATTDEHGLVQFSINTTNVMGTSLTVRVNYKDRSPCYGYQWVSEEHEEAHHTAYLVFSPSKSFVHLEPMSHELPCGHTQTVQAHYILNGGTLLGLKKLSFYYLIMAKGGIVRTGTHGLLVKQEDMKGHFSISIPVKSDIAPVARLLIYAVLPTGDVIGDSAKYDVENCLANKVDLSFSPSQSLPASHAHLRVTAAPQSVCALRAVDQSVLLMKPDAELSASSVYNLLPEKDLTGFPGPLNDQDNEDCINRHNVYINGITYTPVSSTNEKDMYSFLEDMGLKAFTNSKIRKPKMCPQLQQYEMHGPEGLRVGFYESDVMGRGHARLVHVEEPHTETVRKYFPETWIWDLVVVNSAGVAEVGVTVPDTITEWKAGAFCLSEDAGLGISSTASLRAFQPFFVELTMPYSVIRGEAFTLKATVLNYLPKCIRVSVQLEASPAFLAVPVEKEQAPHCICANGRQTVSWAVTPKSLGNVNFTVSAEALESQELCGTEVPSVPEHGRKDTVIKPLLVEPEGLEKETTFNSLLCPSGGEVSEELSLKLPPNVVEESARASVSVLGDILGSAMQNTQNLLQMPYGCGEQNMVLFAPNIYVLDYLNETQQLTPEIKSKAIGYLNTGYQRQLNYKHYDGSYSTFGERYGRNQGNTWLTAFVLKTFAQARAYIFIDEAHITQALIWLSQRQKDNGCFRSSGSLLNNAIKGGVEDEVTLSAYITIALLEIPLTVTHPVVRNALFCLESAWKTAQEGDHGSHVYTKALLAYAFALAGNQDKRKEVLKSLNEEAVKKDNSVHWERPQKPKAPVGHFYEPQAPSAEVEMTSYVLLAYLTAQPAPTSEDLTSATNIVKWITKQQNAQGGFSSTQDTVVALHALSKYGAATFTRTGKAAQVTIQSSGTFSSKFQVDNNNRLLLQQVSLPELPGEYSMKVTGEGCVYLQTSLKYNILPEKEEFPFALGVQTLPQTCDEPKAHTSFQISLSVSYTGSRSASNMAIVDVKMVSGFIPLKPTVKMLERSNHVSRTEVSSNHVLIYLDKVSNQTLSLFFTVLQDVPVRDLKPAIVKVYDYYETDEFAIAEYNAPCSKDLGNA
modifications: internal thioester cleaved by methylamine (MA-activated)
Take B2: in test [2], the stoichiometry N (FV6 per α2M-MA) worked out at 1.

The stoichiometry N is the number of molecules, sites or subunits per partner or assembly.

(Values after PMC4489720.)
